Article PMC11194501
One block for each substance: values may come before it.

Key:
[1] = target: Cep57S-KR (Cep57S with six Lys and Arg residues of the K/R motif replaced by Ala) (human) (UniProt Q86XR8); assay: pull-down; His-tagged Cep57S held on a Ni-NTA spin column, 0.1 mg α/β-tubulin added, 4 °C; 1X PBS pH 8.0, 1 mM 2-mercaptoethanol, 20 mM imidazole, 0.1% Triton X100, 10% glycerol; eluted with 400 mM imidazole, SDS-PAGE
[2] = target: Cep57N (Cep57 residues 56 to 251) (human) (UniProt Q86XR8); assay: ITC
[3] = target: MBP-Cep63N (fusion of MBP and the N-terminal fragment of Cep63) (human) (UniProt Q96MT8); assay: ITC

reduction of tubulin binding against Cep57S [1]: 65%
Substance: α/β-tubulin (from UniProt P02550 1-451; P02554 1-445) (complex)

Kd [2]: 500 nM
stoichiometry N [2]: 0.6
Substance: MBP-Cep63N (fusion of MBP and the N-terminal fragment of Cep63) (from UniProt Q96MT8-2 1-541) (domain or fragment)

Kd [3]: 600 nM
Substance: Cep57N (Cep57 residues 56 to 251) (from UniProt Q86XR8 56-251) (domain or fragment)
